Measurements taken from PMC12915084, “A dsRNA Viral Transcriptional Regulator Evades Innate Immunity by Hijacking Host CoTranscription Factor DHX9”.

What was measured:
DHX9 = DHX9 (UniProt Q08211 1-1270); test: EMSA; shift at 20 nM DHX9; 5 nM R-loop; no ATP or Mg2+ listed in binding buffer; EMSA: 5 nM R-loop, 0.5% NP-40, 150 mM NaCl, 20 mM Tris-Cl pH 8.0, 0.5 mM EDTA, 37 °C 15 min; 6% native PAGE; details: protein: recombinant; tags: Flag; label: 5' Cy5.5 on RNA; three-strand R-loop, DNA duplex arms around an unpaired bubble; RNA nt 1-30 pair with ssDNA-2, 3' RNA overhang 30 nt
Sequence of DHX9 (Q08211 whole entry): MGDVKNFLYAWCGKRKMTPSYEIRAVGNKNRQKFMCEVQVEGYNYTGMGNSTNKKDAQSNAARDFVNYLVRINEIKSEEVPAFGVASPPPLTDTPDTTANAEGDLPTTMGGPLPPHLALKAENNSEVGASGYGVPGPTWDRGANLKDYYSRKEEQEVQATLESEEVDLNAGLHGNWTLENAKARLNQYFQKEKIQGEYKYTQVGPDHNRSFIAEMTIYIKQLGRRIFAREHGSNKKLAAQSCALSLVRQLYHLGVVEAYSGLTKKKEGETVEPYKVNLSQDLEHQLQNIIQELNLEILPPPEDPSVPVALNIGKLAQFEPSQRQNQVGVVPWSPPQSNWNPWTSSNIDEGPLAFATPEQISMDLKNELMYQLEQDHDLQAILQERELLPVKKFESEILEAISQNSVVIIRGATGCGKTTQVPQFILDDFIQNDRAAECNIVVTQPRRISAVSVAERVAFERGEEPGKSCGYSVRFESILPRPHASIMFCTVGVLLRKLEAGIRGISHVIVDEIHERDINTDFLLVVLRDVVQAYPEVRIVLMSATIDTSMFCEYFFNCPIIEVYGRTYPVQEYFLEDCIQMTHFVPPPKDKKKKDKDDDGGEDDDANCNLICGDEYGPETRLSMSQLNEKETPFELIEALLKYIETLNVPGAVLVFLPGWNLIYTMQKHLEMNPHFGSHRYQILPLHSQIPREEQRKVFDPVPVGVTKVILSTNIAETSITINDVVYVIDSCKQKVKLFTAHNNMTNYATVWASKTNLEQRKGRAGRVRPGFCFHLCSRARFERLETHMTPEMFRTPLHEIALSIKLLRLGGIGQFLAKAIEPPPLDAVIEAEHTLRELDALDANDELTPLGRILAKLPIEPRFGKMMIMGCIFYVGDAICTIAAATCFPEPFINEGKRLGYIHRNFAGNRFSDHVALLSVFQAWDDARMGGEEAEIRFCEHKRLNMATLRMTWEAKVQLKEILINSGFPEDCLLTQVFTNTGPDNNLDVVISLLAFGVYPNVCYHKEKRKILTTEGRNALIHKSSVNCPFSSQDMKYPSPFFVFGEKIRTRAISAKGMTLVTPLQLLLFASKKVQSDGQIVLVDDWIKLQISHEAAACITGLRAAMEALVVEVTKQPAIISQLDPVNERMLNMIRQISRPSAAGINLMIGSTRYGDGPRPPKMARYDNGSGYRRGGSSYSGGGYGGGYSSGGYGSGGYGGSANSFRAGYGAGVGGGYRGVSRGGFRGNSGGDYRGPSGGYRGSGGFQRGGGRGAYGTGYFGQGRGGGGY

[1] = target: T1, σ3 WT (REOV outer capsid protein) (Mammalian orthoreovirus, UniProt P07939 1-365); test: EMSA; no shift at any σ3 concentration tested; 5 nM R-loop; without DHX9; EMSA: 5 nM R-loop, 0.5% NP-40, 150 mM NaCl, 20 mM Tris-Cl pH 8.0, 0.5 mM EDTA, 37 °C 15 min; 6% native PAGE; details: protein: recombinant; tags: Flag; label: 5' Cy5.5 on RNA; three-strand R-loop, DNA duplex arms around an unpaired bubble; RNA nt 1-30 pair with ssDNA-2, 3' RNA overhang 30 nt
T1 sequence: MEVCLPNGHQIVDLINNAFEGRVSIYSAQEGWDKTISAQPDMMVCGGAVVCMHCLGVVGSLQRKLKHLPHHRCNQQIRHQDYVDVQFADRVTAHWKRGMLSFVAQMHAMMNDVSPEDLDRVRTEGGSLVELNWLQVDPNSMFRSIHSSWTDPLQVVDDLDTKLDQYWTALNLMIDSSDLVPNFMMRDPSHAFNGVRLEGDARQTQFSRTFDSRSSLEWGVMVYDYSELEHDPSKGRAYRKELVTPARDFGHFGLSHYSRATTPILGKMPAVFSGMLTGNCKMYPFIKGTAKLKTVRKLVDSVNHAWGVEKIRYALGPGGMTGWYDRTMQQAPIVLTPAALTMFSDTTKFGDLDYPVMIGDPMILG

B1: R-loop substrate with RNA 3' overhang (mixed)
DNA 1: CATTGCATATTTAAAACATGTTGGATCCCACGTTGCATGCTGATAGCCTACTAGAGCTGTATGAATTCAAATGACCTCTTATCAAGTGAC
DNA 2: GTCACTTGATAAGAGGTCATTTGAATTCATGGCTTAGAGCTTAATTGCTGAATCTGGTGCTGGGATCCAACATGTTTTAAATATGCAATG
RNA: GCACCAGAUUCAGCAAUUAAGCUCUAAGCCGCUGACGGCUCGAUGCUGAUCGUAGCAUCG
binding result (DHX9): binds | binding result [1]: no binding
